Assay results as given in CN114702578A (BAISI MEDICAL DIAGNOSTICS TECH BEIJING CO LTD, dated 2022).

Target: T1, 新型冠状病毒野生型Spike RBD蛋白 (新型冠状病毒野生型 (SARS-CoV-2 wild type), UniProt P0DTC2 319-537)
T1 construct: domain: Spike RBD
Experiment: ELISA binding experiment (Fig. 3)

B1: 克隆号为3A7C12的抗体 (antibody, V domains shown)
VH: EVQLVESGGGLVKPGGSLRLSCAASGFTFSSYSMNWVRQAPGKGLEWVSSISSGSSYIYFADSVKGRFTISRDNAKNSLFLQMNSLRAEDTATYYCARAPLGYDSSGYFTMYYFDYWGQGTLVTVSS
VL: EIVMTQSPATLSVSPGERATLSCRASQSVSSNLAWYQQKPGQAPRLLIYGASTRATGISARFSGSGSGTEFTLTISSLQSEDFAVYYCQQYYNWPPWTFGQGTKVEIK
notes: also called 3A7C12克隆号抗体
B1: no binding.
